Where no end group is shown, it is not given here.
Experiments:
[1] = target: T1, biotinylated tau peptide, amino acid residues 262-276 of SEQ ID NO:3 (human, also: biotinylated, site not given here); experiment: peptide ELISA, epitope mapping of hybridoma positives
T1 construct: One of the overlapping peptides spanning 4R0N human tau
T1 peptide: SKCGSLGNIHHKPGG
Procedure: (§1) Additional peptides were used to model potential post-translational modifications of the C- and N-terminal ends of the protein.
(§2) Biotinylated peptides were bound to separate wells of a streptavidin-coated ELISA plate. The plate was blocked and treated with murine 3D6, followed by incubation with a horseradish peroxidase-conjugated anti-mouse antibody. After thorough washing, OPD was applied to the plate and allowed to develop. The plate was read at 450 nm absorbance. Background subtraction was performed with absorbance values from wells containing no primary antibody, and a threshold for positive binding was set to 0.2 absorbance units. […] (FIG. 1)

[2] = target: T2, biotinylated tau peptide, amino acid residues 199-213 of SEQ ID NO:3 (human, also: biotinylated, site not given here); experiment: as above
T2 construct: One of the overlapping peptides spanning 4R0N human tau
T2 peptide: KSKIGSTENLKHQPG
Procedure: as §1, §2

271-285 = target: T3, 271-285 (also: biotinylated, site not given here); experiment: peptide ELISA, biotinylated peptide on streptavidin plate; background-subtracted absorbance; positive from 0.2
T3 peptide: HHKPGGGQVEVKSEK
Procedure: as §1, §2

100-114 = target: T4, 100-114 (also: biotinylated (site not given here)); experiment: as above
T4 construct: also called tau peptide 100-114 (4R0N numbering)
T4 peptide: APPGQKGQANATRIP
Procedure: as §1, §2

1-15* (free N-term) = target: T5, 1-15* (free N-term) (also: biotinylated (site not given here)); experiment: as above
T5 construct: also called tau peptide 1-15 (4R0N numbering), free N-terminus
T5 peptide: H-MAEPRQEFEVMEDHA
Procedure: as §1, §2

369-383 (free C-term) = target: T6, 369-383 (free C-term) (also: biotinylated, site not given here); experiment: as above
T6 peptide: TLADEVSASLAKQGL-OH
Procedure: as §1, §2

[3] = target: T7, 369-383 (amidated C-term) (also: biotinylated, site not given here); experiment: as above
T7 peptide: TLADEVSASLAKQGL-NH2
Procedure: as §1, §2

343-357 = target: T8, 343-357 (also: biotinylated, site not given here); experiment: as above
T8 construct: also called tau peptide 343-357 (4R0N numbering)
T8 peptide: GDTSPRHLSNVSSTG
Procedure: as §1, §2

136-150 = target: T9, 136-150 (also: biotinylated, site not given here); experiment: as above
T9 construct: also called tau peptide 136-150 (4R0N numbering)
T9 peptide: RSGYSSPGSPGTPGS
Procedure: as §1, §2

37-51 = target: T10, 37-51 (also: biotinylated, site not given here); experiment: as above
T10 construct: also called tau peptide 37-51 (4R0N numbering)
T10 peptide: GDTDAGLKAEEAGIG
Procedure: as §1, §2

10-24 = target: T11, 10-24 (also: biotinylated (site not given here)); experiment: as above
T11 construct: also called tau peptide 10-24 (4R0N numbering)
T11 peptide: VMEDHAGTYGLGDRK
Procedure: as §1, §2

181-195 = target: T12, 181-195 (also: biotinylated, site not given here); experiment: as above
T12 peptide: AKSRLQTAPVPMPDL
Procedure: as §1, §2

[4] = target: biotinylated recombinant tau (UniProt P10636-6 1-383, limits assumed, biotinylated); experiment: competition ELISA: inhibition of biotinylated tau binding to plate-bound low molecular weight heparin
Procedure: To test the ability of murine and humanized 3D6 variants to interrupt tau interaction with heparin, ELISA plates coated with low molecular weight heparin were first blocked with 2% BSA in PBS for 2h at room temperature. Plates were washed with TBST. After blocking, plates were incubated with biotinylated recombinant tau along with indicated concentrations of unlabeled antibody in 1% BSA/PBS for one hour at room temperature. Plates were again washed, and then incubated with streptavidin-HRP in 0.1% BSA/PBS for 45 min. Plates were then washed and developed with OPD, and absorbance was measured at 490 nm. Inhibition curves were analyzed using a 4-parameter log fit.

[5] = target: T13, tau peptide NVKSKIGSTENLKHQPG (SEQ ID NO:184) (human); experiment: peptide microarray, 3D6 at 10 ug/ml
T13 construct: Printed on a microarray together with all its single substitution variants; also called probe peptide
T13 peptide: NVKSKIGSTENLKHQPG
Procedure: The assay exchanged each of the amino acids in the peptide sequence with all 20 amino acids, to determine with a high degree of accuracy the core epitope for 3D6. The microarray was printed with all peptides in triplicate, along with HA control peptides to ensure assay performance. To perform the assay, the array was incubated with 3D6 (10 ug/ml) in blocking buffer, washed with PBS-T, followed by incubation with a goat anti-mouse secondary antibody conjugated to DyLight-680. In addition, the microarray was incubated with anti-HA antibody 12CA5 directly conjugated to DyLight-800. Microarrays were scanned using a LiCor scanner, and intensities of triplicates were averaged.

recombinant human tau = target: T14, recombinant human tau (human, UniProt P10636-6 1-383, limits assumed); experiment: SPR (Biacore T200): antibody captured on an anti-mouse chip, recombinant human tau 10-0.14 nM as analyte, global 1:1 fit
T14 construct: also called human recombinant tau without polyhistidine tag; native, untagged protein
Procedure: Methods: SPR analysis was performed using a Biacore T200 to determine the binding kinetics of murine antibodies to recombinant human tau. To prepare a sensor surface, anti-mouse antibody (GE Life Sciences) was immobilized on sensor chip CM5 via amine coupling, and antibody was captured at a level to ensure maximum binding of 50 RU. Various concentrations of recombinant tau ranging from 10-0.14 nM were passed over the captured ligand at a flow rate of 50 μL/min in running buffer (HBS+0.05% P-20, 1 mg/mL BSA), for 180 sec association and 900 sec dissociation. Data were double-referenced to both an irrelevant sensor not containing antibody ligand, and 0 nM analyte concentration to account for the dissociation of ligand from the capture moiety. Data was then analyzed using a global 1:1 fit.

T14 sequence (P10636 other isoform, or with tags, fused parts or gaps limits assumed): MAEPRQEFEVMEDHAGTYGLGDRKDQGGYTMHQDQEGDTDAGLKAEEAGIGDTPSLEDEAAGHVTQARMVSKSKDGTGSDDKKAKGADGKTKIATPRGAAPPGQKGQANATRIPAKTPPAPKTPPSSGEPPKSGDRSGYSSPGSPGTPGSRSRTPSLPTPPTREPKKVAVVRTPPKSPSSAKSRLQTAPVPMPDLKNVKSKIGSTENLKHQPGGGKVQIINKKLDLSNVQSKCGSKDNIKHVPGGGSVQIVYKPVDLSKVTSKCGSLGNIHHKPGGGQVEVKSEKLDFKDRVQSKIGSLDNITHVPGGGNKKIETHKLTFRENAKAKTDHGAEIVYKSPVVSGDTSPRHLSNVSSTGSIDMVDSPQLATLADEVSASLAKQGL
biotinylated recombinant tau, sequence (P10636 other isoform, or with tags, fused parts or gaps limits assumed): as above

binding result [1]: binds
binding result [2]: binds
binding result (271-285): no binding
binding result (100-114): no binding
binding result (1-15* (free N-term)): no binding
binding result (369-383 (free C-term)): no binding
binding result [3]: no binding
binding result (343-357): no binding
binding result (136-150): no binding
binding result (37-51): no binding
binding result (10-24): no binding
binding result (181-195): no binding
IC50 [4]: 0.409 nM
binding result [5]: binds
Kd (recombinant human tau): 0.46 nM
koff (recombinant human tau): 0.00119 s⁻¹
kon (recombinant human tau): 2.58e+06 M⁻¹ s⁻¹
B1: murine 3D6 monoclonal antibody (antibody, IgG1, V domains shown)
VH: EVQLQQSGADLVRPGALVKLSCKASGFNIKDYYLHWVRQRPEQGLEWIGWIDPENGDTVYDPKFQGKATITADTSSNTAYLQLGSLTSEDTAVYFCSTLDFWGQGTTLTVSS
VL: not shown
notes: Hybridoma-derived mouse antibody; also called m3D6; mouse 3D6

Source: US20200369755A1 (PROTHENA BIOSCIENCES, published 2020)
